Data published in paper PMC9977310, “ABT1 modifies SMARD1 pathology via interactions with IGHMBP2 and stimulation of ATPase and helicase activity” (JCI Insight, 2023).

What was measured:
[1] = system: IGHMBP2;ABT1 (Homo sapiens;Mus musculus); assay: MST; conditions: MST: 100 nM NT-647-labeled IGHMBP2 (+/- 100 nM ABT1), RNA titrated from 1 uM (single) or 500 nM each (two RNAs), buffer, salt, pH and temperature not stated. …
[2] = target: T1, immunoglobulin mu DNA binding protein 2 (IGHMBP2), human, full length, thioredoxin-6xHis fusion from pET32b (human, UniProt P38935 1-993, RED-Tris-NTA (NT-647) fluorescent label in the MST); assay: cell-based or functional assay
T1 sequence (looked up): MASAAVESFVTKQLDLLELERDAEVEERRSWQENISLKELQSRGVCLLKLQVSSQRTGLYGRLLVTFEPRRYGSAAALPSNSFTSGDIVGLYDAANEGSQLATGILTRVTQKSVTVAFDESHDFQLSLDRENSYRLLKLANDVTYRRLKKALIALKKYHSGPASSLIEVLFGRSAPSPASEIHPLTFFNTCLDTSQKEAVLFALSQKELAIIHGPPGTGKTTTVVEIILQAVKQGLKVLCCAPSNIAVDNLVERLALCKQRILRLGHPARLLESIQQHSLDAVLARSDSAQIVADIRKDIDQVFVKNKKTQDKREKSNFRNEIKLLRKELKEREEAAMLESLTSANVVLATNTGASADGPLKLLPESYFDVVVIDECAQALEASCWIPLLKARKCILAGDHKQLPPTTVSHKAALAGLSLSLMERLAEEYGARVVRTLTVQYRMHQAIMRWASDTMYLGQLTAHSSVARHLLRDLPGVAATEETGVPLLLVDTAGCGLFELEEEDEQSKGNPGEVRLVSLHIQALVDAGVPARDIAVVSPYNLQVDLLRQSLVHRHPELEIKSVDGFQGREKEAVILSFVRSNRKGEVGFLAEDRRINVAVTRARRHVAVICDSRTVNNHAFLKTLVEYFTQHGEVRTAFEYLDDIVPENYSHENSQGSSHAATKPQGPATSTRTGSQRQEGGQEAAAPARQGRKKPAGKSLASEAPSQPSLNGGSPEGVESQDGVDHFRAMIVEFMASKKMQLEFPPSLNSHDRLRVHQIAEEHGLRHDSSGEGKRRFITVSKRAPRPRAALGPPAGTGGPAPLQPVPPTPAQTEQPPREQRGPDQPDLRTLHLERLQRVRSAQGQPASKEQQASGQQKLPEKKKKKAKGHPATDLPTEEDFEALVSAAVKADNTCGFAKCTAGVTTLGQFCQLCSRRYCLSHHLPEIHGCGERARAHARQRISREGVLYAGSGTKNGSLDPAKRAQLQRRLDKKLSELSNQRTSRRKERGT

[3] = target: T1, immunoglobulin mu DNA binding protein 2 …; assay: not stated; stoichiometry of ABT1 to IGHMBP2, Supplemental Figure 1; told in the paragraph on DLS, method not given; conditions: both partners purified
[4] = target: T1, immunoglobulin mu DNA binding protein 2 …; assay: MST; IGHMBP2 RED-Tris-NTA labelled, constant 100 nM; partner titrated (1 μM to 1.53 × 10^5 μM as printed); fit to a quadratic equation, MO.Affinity Analysis; conditions: both partners purified

Molecule: 5' ETS RNA (47S pre-rRNA)
- Kd [1]: > 697 nM

Molecule: 5' ETS RNA + U3 snoRNA (annealed)
- Kd ([1]; 100 nM IGHMBP2 + 100 nM ABT1, RNAs from 500 nM each): 28 nM

Molecule: U3 snoRNA
- Kd [1]: 35 nM

B1: activator of basal transcription 1 (ABT1), mouse, full length, GST fusion from pGEX-6P1 (natural protein, UniProt Q9QYL7 1-269, looked up)
chain: MVKAGELVEQQKAAMEEEANAEAAEDQEEPEDTACSSSSKKKKKVVPGIVYLGHVPPRFRPLHVRNLLSAYGEVGRVFFQAEDHFVKRKKKAAAAAGGKKGAKYSKDYTEGWVEFRDKRVAKRVAASLHNTPMGARKRSPFRYDLWNLKYLHRFTWSHLSEHLAFERQVRRQRLRAEVAQAKRETDFYLRNVEQGQHFLAADGDATRPNSSWTFTQRPTEQEFRARKAARPGGRERARLANVEDQARSNRGLLAKIFGAPLPAESKEKP
notes: ABT1, mouse, full-length cDNA synthesized (GenScript), cloned into pGEX6P1; 31 kDa ABT1 + ~26 kDa GST, predicted ~57 kDa; Mouse ABT1 was tested against human IGHMBP2; No cleavage of GST is described; also called GST-ABT1; pGEX-ABT1; source: E. coli (BL21 and Rosetta strains used), purified on GST beads, eluted with reduced glutathione; bacterial cell lysate in the immunoprecipitation
- ATPase activity of IGHMBP2 (100 nM) with increasing ABT1 up to 120 nM (malachite green, free phosphate), fold increase over IGHMBP2 alone [2]: 1.96 fold
- helicase activity of IGHMBP2 (100 nM) with increasing ABT1 up to 120 nM (Cy3-labelled DNA substrate), fold increase over IGHMBP2 alone [2]: 1.41 fold
- nucleic acid unwinding rate of TP31-18mer duplex, 100 nM IGHMBP2 + 100 nM ABT1, 1-7 min (IGHMBP2 alone 1.141/min; printed as a 1.42-fold increase) [2]: 5.96 min⁻¹
- rate of DNA substrate unwinding/nM protein, 100 nM IGHMBP2 with ABT1 20-100 nM, 7 min (IGHMBP2 alone 0.005/min; printed as 1.84-fold increased activity) [2]: 0.01 min⁻¹
- stoichiometry N [3]: ~1
- Kd [4]: ~52 nM
